Laboratory results from patent publication US20120148586A1 (published 2012).
Changes are numbered by the printed parent chain.

Biological target: GLP-1R (receptor addressed by the glucose-stimulated insulin secretion assay of Table 1)
Assay: cell-based or functional assay

B1: peptide of GAC-9 (not tethered to an antibody) (peptide)
peptide: HXEGTFTSDVSSYLEGQAAKEFIAWLVKXR
modifications: Aib at position 2 and Aib before the C-terminal R; linking residue K26 (so in the source)
- EC50 (µM), glucose-stimulated insulin secretion (GSIS) assay: 0.094 µM

B2: peptide of GAC-4 (not tethered to an antibody) (peptide)
peptide: B1 peptide with X29G
modifications: Aib at position 2; linking residue K26 (so in the source)
- EC50 (µM), glucose-stimulated insulin secretion (GSIS) assay: 0.041 µM
